Results: publication PMC2865030

Legend:
Experiment in all cases: ITC
[1] = target: C-terminal domain of yeast Hsp90 (yeast)
[2] = target: yeast Hsp90 M705V (His-tagged) (yeast) (UniProt P02829)
[3] = target: yeast Hsp90 (wild type, His-tagged) (yeast) (UniProt P02829)

B1: Tah1 (TPR-containing protein associated with Hsp90) (natural protein)
chain: MSQFEKQKEQGNSLFKQGLYREAVHCYDQLITAQPQNPVGYSNKAMALIKLGEYTQAIQMCQQGLRYTSTAEHVAIRSKLQYRLELAQGAVGSVQIPVVEVDELPEGYDRS
Kd [1]: 320 nM | stoichiometry N [1]: 0.93 | Kd [2]: 13000 nM | stoichiometry N [2]: 0.83 | Kd [3]: 780 nM | stoichiometry N [3]: 1.1
